Test results: US20200199213A1 (Eli Lilly, published 2020)

Target: T1, mouse LPL (mouse, UniProt P11152 28-474)
T1 sequence (looked up): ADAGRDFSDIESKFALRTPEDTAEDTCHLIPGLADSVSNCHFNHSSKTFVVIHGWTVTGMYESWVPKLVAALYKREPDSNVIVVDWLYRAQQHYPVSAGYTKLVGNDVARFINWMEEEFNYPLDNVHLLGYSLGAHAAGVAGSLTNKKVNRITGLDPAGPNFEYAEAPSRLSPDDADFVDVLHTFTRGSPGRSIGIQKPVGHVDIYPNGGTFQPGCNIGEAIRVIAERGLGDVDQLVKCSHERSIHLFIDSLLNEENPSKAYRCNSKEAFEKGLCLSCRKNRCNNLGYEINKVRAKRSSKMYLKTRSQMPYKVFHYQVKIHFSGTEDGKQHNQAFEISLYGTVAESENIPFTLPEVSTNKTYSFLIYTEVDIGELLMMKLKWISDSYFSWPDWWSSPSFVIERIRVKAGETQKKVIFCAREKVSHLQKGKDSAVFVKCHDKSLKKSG
Assay: cell-based or functional assay

IC80 concentration (inhibition of LPL activity): 0.13 nM
B1: mouse ANGPTL3/8 complex (other)
chain 1: SRVDPDLSSFDSAPSEPKSRFAMLDDVKILANGLLQLGHGLKDFVHKTKGQINDIFQKLNIFDQSFYDLSLRTNEIKEEEKELRRTTSTLQVKNEEVKNMSVELNSKLESLLEEKTALQHKVRALEEQLTNLILSPAGAQEHPEVTSLKSFVEQQDNSIRELLQSVEEQYKQLSQQHMQIKEIEKQLRKTGIQEPSENSLSSKSRAPRTTPPLQLNETENTEQDDLPADCSAVYNRGEHTSGVYTIKPRNSQGFNVYCDTQSGSPWTLIQHRKDGSQDFNETWENYEKGFGRLDGEFWLGLEKIYAIVQQSNYILRLELQDWKDSKHYVEYSFHLGSHETNYTLHVAEIAGNIPGALPEHTDLMFSTWNHRAKGQLYCPESYSGGWWWNDICGENNLNGKYNKPRTKSRPERRRGIYWRPQSRKLYAIKSSKMMLQPTT
chain 2: VRPAPVAPLGGPEPAQYEELTLLFHGALQLGQALNGVYRATEARLTEAGHSLGLYDRALEFLGTEVRQGQDATQELRTSLSEIQVEEDALHLRAEATARSLGEVARAQQALRDTVRRLQVQLRGAWLGQAHQEFETLKARADKQSHLLWALTGHVQRQQREMAEQQQWLRQIQQRLHTAALPA
